Here are results for one molecule from publication doi:10.1101/2021.07.09.451512.

Where two headings read alike, the source gives them in different places.

What all share (assay): fluorescence polarisation
On the technique in general: In fluorescence polarisation assays a small probe gives low polarisation when free and higher when bound to something large.

For experiment [1], the target named is fluorescein labelled AcrIIC4 (wild type, engineered C-terminal cysteine) (Haemophilus parainfluenzae (prophage)).
The target is the same in experiment [2]. The source holds these as a separate data set.
Experiment [3] has as its target fluorescein labelled AcrIIC4 K56A (Haemophilus parainfluenzae (prophage)).
The target in experiment [4] is fluorescein labelled AcrIIC4 F49A (Haemophilus parainfluenzae (prophage)).
Experiment [5] addresses fluorescein labelled AcrIIC4 R46A (Haemophilus parainfluenzae (prophage)).
For experiment [6], the target named is fluorescein labelled AcrIIC4 (wild type, engineered C-terminal cysteine) (Haemophilus parainfluenzae (prophage)). The source holds these as a separate data set.

B1: Nme1Cas9 (N-terminal 6His-tag) (natural protein)
chain: MAAFKPNSINYILGLDIGIASVGWAMVEIDEEENPIRLIDLGVRVFERAEVPKTGDSLAMARRLARSVRRLTRRRAHRLLRTRRLLKREGVLQAANFDENGLIKSLPNTPWQLRAAALDRKLTPLEWSAVLLHLIKHRGYLSQRKNEGETADKELGALLKGVAGNAHALQTGDFRTPAELALNKFEKESGHIRNQRSDYSHTFSRKDLQAELILLFEKQKEFGNPHVSGGLKEGIETLLMTQRPALSGDAVQKMLGHCTFEPAEPKAAKNTYTAERFIWLTKLNNLRILEQGSERPLTDTERATLMDEPYRKSKLTYAQARKLLGLEDTAFFKGLRYGKDNAEASTLMEMKAYHAISRALEKEGLKDKKSPLNLSPELQDEIGTAFSLFKTDEDITGRLKDRIQPEILEALLKHISFDKFVQISLKALRRIVPLMEQGKRYDEACAEIYGDHYGKKNTEEKIYLPPIPADEIRNPVVLRALSQARKVINGVVRRYGSPARIHIETAREVGKSFKDRKEIEKRQEENRKDREKAAAKFREYFPNFVGEPKSKDILKLRLYEQQHGKCLYSGKEINLGRLNEKGYVEIDHALPFSRTWDDSFNNKVLVLGSENQNKGNQTPYEYFNGKDNSREWQEFKARVETSRFPRSKKQRILLQKFDEDGFKERNLNDTRYVNRFLCQFVADRMRLTGKGKKRVFASNGQITNLLRGFWGLRKVRAENDRHHALDAVVVACSTVAMQQKITRFVRYKEMNAFDGKTIDKETGEVLHQKTHFPQPWEFFAQEVMIRVFGKPDGKPEFEEADTLEKLRTLLAEKLSSRPEAVHEYVTPLFVSRAPNRKMSGQGHMETVKSAKRLDEGVSVLRVPLTQLKLKDLEKMVNREREPKLYEALKARLEAHKDDPAKAFAEPFYKYDKAGNRTQQVKAVRVEQVQKTGVWVRNHNGIADNATMVRVDVFEKGDKYYLVPIYSWQVAKGILPDRAVVQGKDEEDWQLIDDSFNFKFSLHPNDLVEVITKKARMFGYFASCHRGTGNINIRIHDLDHKIGKNGILEGIGVKTALSFQKYQIDELGKEIRPCRLKKRPPVR
B1: the dissociation constant (Kd) in experiment [1] was 7.1 nM; in experiment [2] it was 6.6 nM; in experiment [3], 1.4 nM; in experiment [4], 15.3 nM; in experiment [5], over 2500 nM; in experiment [6], 10.2 nM.

Broadly, the Kd is the constant that tells how readily two partners part at equilibrium. Lower therefore signals tighter binding.
